Test results from US7303752B2, “Hookworm vaccine” (The George Washington University, priority 2001, dated 2007).

Key:
A. caninum = assay: Canine vaccine trial with Ac-TMP, Ac-AP, Ac-APR-1, oral challenge with 400 A. caninum L3; assay type: in vivo, dog
Excerpt: Study dogs and animal husbandry: Following protocol approval by The George Washington University Institutional Animal Care and Use Committee (IACUC), purpose bred, parasite naïve, male beagles 8±1 week of age were purchased, identified by ear tattoo, and maintained in the AALAC (Association for Assessment and Accreditation of Laboratory Animal Care) accredited George Washington University Animal Research Facility. The dogs were housed in a room dedicated for the study, at a room temperature of 70±4° F., with 10-15 air changes per hour comprised of 100 percent fresh air, and 12 hr light cycles alternating with 12 hr dark cycles. The airflow and timer functions were monitored daily. The dogs were fed on a diet of Teklad Certified Dog Chow #8727, supplemented with a canned soft diet in the event of anorexia. The drinking water was piped from a filter plant and delivered via automatc water system; water analysis was performed by the U.S. Army Corps of Engineers. Water from the facilities automatic system is cultured for bacteria and fungi annually. The pens were flushed daily and sanitized every two weeks. Dogs within a given study group were permitted to live together and socialize prior to the hookworm larval challenge, but were caged individually post-infection. All dogs were quarantined for approximately one week before beginning the vaccine trial. Prior to vaccination a complete blood count (CBC), serum chemistries, and a pre-vaccination serum sample were obtained.
Vaccine study design and sample size: The vaccine trial was designed to test three different antigens, each formulated with alum, as well as an alum adjuvant control. A total of 24 dogs were randomly assigned into four groups comprised of 6 dogs each. The canine sample size was selected on the ability to detect a 40-50 percent reduction in the numbers of adult hookworms in the small intestines of the vaccinated group relative to control dogs, at a statistical power of 80 percent (alpha=0.05, two-tailed). The data were derived from the mean and standard deviation of adult hookworms previously recovered from age-matched dogs infected with 400 A. caninum L3 (Hotez et al, 2002).
Recombinant Antigens: Each group of 6 dogs was vaccinated with recombinant hookworm proteins expressed as fusion proteins either in Escherichia coli or in an insect cell line with baculovirus. Ac-AP (Cappello et al, 1995; 1996) and Ac-TMP, were expressed in E. coli as pET 28 (Novagen) fusion proteins containing a polyhistidine tag (Cappello et al, 1996). Ac-APR-1 (Harrop et al, 1996) was expressed in a baculovirus pBacPAK6 vector (Clontech), modified to contain a polyhistidine-encoding sequence and additional restriction enzyme sites (Brindley et al, 2001). Recombinant Ac-AP and Ac-TMP fusion proteins were then purified by nickel affinity chromatography, followed by a second step of purification. In the case of Ac-AP (Cappello et al, 1995; 1996), the recombinant protein was purified by mono-S (Amersham-Pharmacia) ion exchange chromatography, while Ac-TMP (Zhan et al, 2002) was purified by superdex 75 (Amersham-Pharmacia) gel filtration chromatography. Ac-APR-1 (Harrop et al, 1996) was purified by substrate affinity chromatography using pepstatin agarose (Brindley et al, 2001). The antigen stock protein concentration was determined by Pierce Micro BCA assay (Pierce Chemicals) or by the absorbance of the sample at […] using an extinction coefficient that was calculated from the deduced amino acid composition of the fusion protein. The amount of alum adsorbed protein in each dose of antigen was measured by the Pierce Micro BCA assay using a bovine serum albumin standard. The relative purity of each of the antigens relative to contaminating E. coli or insect cell proteins was determined by analysis on sodium dodecyl sulfate polyacrylamide gel electrophoresis (SDS-PAGE). […]

[1] = system: antigen-specific canine IgG1 antibodies; assay: ELISA of antigen-specific canine IgG1, trial with Ac-TMP, Ac-AP, Ac-APR-1; assay type: in vivo, dog; conditions: five of the six vaccinated dogs
Experimental: Canine Immunizations: A four-dose immunization schedule was selected (Table II). Each of the dogs was vaccinated by subcutaneous immunization at two sites in the shoulder, through a 22 gauge needle. The volume of the injections ranged between 0.5 and 1.0 ml. Four doses of each antigen were administered over a 38-day period. The first two injections (primary immunization) were administered on days 1 and 4, and the final two immunizations (boosts) were administered on days 34 and 38. Dogs in the control group were injected with an equivalent amount of alum.
Canine antibody measurements: Blood was collected weekly by venipuncture and the serum was separated and stored frozen at −20° C. Antigen-specific canine IgG1 antibodies were measured by indirect enzyme-linked immunosorbent assay (ELISA). Other IgG subclasses were not measured due to the unavailability of suitable high-quality canine-specific reagents. The optimal concentrations of sample sera and enzyme-linked detection antibody were determined by checkerboard titrations. Optimal antigen concentrations were determined by using a saturation technique. […] The plates were incubated in the dark for 30 minutes and read at a wavelength of 405 nm on a SpectraMax 240 PC reader (Molecular Devices, Sunnyvale, Calif.) with SOFTmax Pro software (Molecular Devices, Sunnyvale, Calif.). […]

CD-4+lymphocytes = assay: Intracellular cytokine staining of antigen-stimulated CD4+ lymphocytes of hookworm-infected residents; assay type: cell-based, human; conditions: CD4+ lymphocytes from whole blood of hookworm infected residents
Experimental: The underlying immunological mechanisms accounting for this observation has been investigated. Shown in FIGS. 40 and 41, CD-4+lymphocytes were gated from the whole blood of hookworm infected residents and stimulated with either L3 soluble hookworm antigen FIG. 40) or Pichia-expressed recombinant Na-ASP-1 (FIG. 41). Host cytokine production was measured by an intracellular cytokine staining technique. […] IL-10 is a strong immunomodulator with downregulatory, anti-inflammatory properties, and IL-4 is associated with antibody production and TH-2 type immunity.

[2] = single dog with positive immune response

B1: Ac-AP: A. caninum factor Xa inhibitor anticoagulant, SEQ ID NO: 54; * marks the single dog with positive immune response (protein, listed as Ancylostoma caninum)
chain: KAYPECGENEWLDDCGTQKPCEAKCNEEPPEEEDPICRSRGCLLPPACVCKDGFYRDTVIGDCVREEECDQHEIIHV
B1 was tested, and the “% Decrease of adult hookworms in the small intestines relative to alum-injected dogs” value (A. caninum; group) was 4.5%, the “% Increase of adult hookworms in the colons relative to alum-injected dogs” value (A. caninum; group) was 183% and the “adult A. caninum hookworms in the colons, Median” value (A. caninum; group median, alum control 4) was 14. The “adult hookworms in the small intestines, Median” value (A. caninum; group median, alum control 180) was 170, the “small intestine to colon hookworm burden ratio” value (A. caninum; single dog with anti-Ac-AP antibody response) was 1.6 and the “% Decrease of adult hookworms in the small intestine relative to alum-injected dogs” value (A. caninum; [2]) was 34.7%. For the same molecule, the “% Increase of adult hookworms in the colon relative to alum-injected dogs” value (A. caninum; [2]) was 1083%, the “adult A. caninum hookworms in the colon, Mean” value (A. caninum; [2]) was 71 and the “adult A. caninum hookworms in the colon, Median” value (A. caninum; [2]) was 71. The “adult hookworms in the small intestine, Mean” value (A. caninum; [2]) was 115, the “adult hookworms in the small intestine, Median” value (A. caninum; [2]) was 115 and the “immunological response to the antigen” value [1] was “failed to respond immunologically”.

B2: Na-ASP-1: Necator americanus secreted protein antigen, SEQ ID NO: 2; Pichia-expressed recombinant (protein, listed as Necator americanus)
chain: MFSPVVVSVVFTIAFCNASPARDSFGCSNSGITDSDRQAFLDFHNNARRRVAKGLEDSNSGKLNPAKNMYKLSWDCAMEQQLQDAIQSCPSGFAGIQGVAQNTMSWSSSGGYPDPSVKIEPTLSGWWSGAKKNGVGPDNKYTGGGLFAFSNMVYSETTKLGCAYKVCGTKLAVSCIYNGVGYITNQPMWETGQACQTGADCSTYKNSGCEDGLCTKGPDVPETNQQCPSNTGMTDSVRDTFLSVHNEFRSSVARGLEPDALGGNAPKAAKMLKMVYDCEVEASAIRHGNKCVYQHSHGEDRPGLGENIYKTSVLKFDKNKAAKQASQLWWNELKEYGVGPSNVLTTALWNRPNMQIGHYTQMAWDTTYKLGCAVVFCNDFTFGVCQYGPGGNYMGHVIYTMGQPCSQCSPGATCSVTEGLCSAP
In the case of B2, the host cytokine production (CD-4+lymphocytes) is reported as “high levels of IL-10 and IL-5, but not IL-4”.
